Laboratory results taken from paper PMC4250834 (Cell reports, 2014).
No end group written: not given here.

Biological target: T1, recombinant Clp1 (alone) (S. cerevisiae, UniProt Q08685 1-445)
T1 sequence (looked up): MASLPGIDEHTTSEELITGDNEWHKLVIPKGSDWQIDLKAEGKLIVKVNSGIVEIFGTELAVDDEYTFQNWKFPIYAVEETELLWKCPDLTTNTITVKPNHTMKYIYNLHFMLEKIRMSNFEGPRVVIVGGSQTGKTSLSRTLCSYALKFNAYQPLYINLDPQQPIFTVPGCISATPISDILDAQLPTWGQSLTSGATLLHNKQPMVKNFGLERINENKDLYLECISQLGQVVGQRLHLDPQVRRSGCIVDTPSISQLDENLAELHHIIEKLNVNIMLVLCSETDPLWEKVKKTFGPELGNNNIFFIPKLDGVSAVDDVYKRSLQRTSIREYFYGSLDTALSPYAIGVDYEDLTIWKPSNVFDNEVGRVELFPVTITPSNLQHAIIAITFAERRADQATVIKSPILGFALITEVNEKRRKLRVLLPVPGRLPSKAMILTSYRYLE
Test: pull-down

B1: biotinylated flap loop peptide (Rpb2 amino acids 915–943) (peptide, UniProt P08518 915-943, looked up)
peptide: TTPISPDEEELGQRTAYHSKRDASTPLRS
modifications: also: biotin, site not given here
**Q.** Does B1 bind?
**A.** Result: binds
